# In publication PMC10484734, “TLK1-mediated RAD54 phosphorylation spatio-temporally regulates Homologous Recombination Repair” (Nucleic Acids Research, 2023):
# B1: recombinant human RAD51 [human] / His6-Thioredoxin-RAD54-Flag (recombinant human RAD54, wild type) [human] (parent complex)
# chain 1: MAMQMQLEANADTSVEEESFGPQPISRLEQCGINANDVKKLEEAGFHTVEAVAYAPKKELINIKGISEAKADKILAEAAKLVPMGFTTATEFHQRRSEIIQITTGSKELDKLLQGGIETGSITEMFGEFRTGKTQICHTLAVTCQLPIDRGGGEGKAMYIDTEGTFRPERLLAVAERYGLSGSDVLDNVAYARAFNTDHQTQLLYQASAMMVESRYALLIVDSATALYRTDYSGRGELSARQMHLARFLRMLLRLADEFGVAVVITNQVVAQVDGAAMFAADPKKPIGGNIIAHASTTRLYLRKGRGETRICKIYDSPCLPEAEAMFAINADGVGDAKD
# chain 2: MRRSLAPSQLAKRKPEGRSCDDEDWQPGLVTPRKRKSSSETQIQECFLSPFRKPLSQLTNQPPCLDSSQHEAFIRSILSKPFKVPIPNYQGPLGSRALGLKRAGVRRALHDPLEKDALVLYEPPPLSAHDQLKLDKEKLPVHVVVDPILSKVLRPHQREGVKFLWECVTSRRIPGSHGCIMADEMGLGKTLQCITLMWTLLRQSPECKPEIDKAVVVSPSSLVKNWYNEVGKWLGGRIQPLAIDGGSKDEIDQKLEGFMNQRGARVSSPILIISYETFRLHVGVLQKGSVGLVICDEGHRLKNSENQTYQALDSLNTSRRVLISGTPIQNDLLEYFSLVHFVNSGILGTAHEFKKHFELPILKGRDAAASEADRQLGEERLRELTSIVNRCLIRRTSDILSKYLPVKIEQVVCCRLTPLQTELYKRFLRQAKPAEELLEGKMSVSSLSSITSLKKLCNHPALIYDKCVEEEDGFVGALDLFPPGYSSKALEPQLSGKMLVLDYILAVTRSRSSDKVVLVSNYTQTLDLFEKLCRARRYLYVRLDGTMSIKKRAKVVERFNSPSSPDFVFMLSSKAGGCGLNLIGANRLVMFDPDWNPANDEQAMARVWRDGQKKTCYIYRLLSAGTIEEKIFQRQSHKKALSSCVVDEEQDVERHFSLGELKELFILDEASLSDTHDRLHCRRCVNSRQIRPPPDGSDCTSDLAGWNHCTDKWGLRDEVLQAAWDAASTAITFVFHQRSHEEQRGLR
# Variants of: B1
# Test: pull-down (silver-stained gel, quantified); read off a plot
row,Variant,ratio to parent
1,"chain 2 T41D, chain 2 T59D",~0.41
2,chain 2 T41D,~0.25
3,"chain 2 T41D, chain 2 T59D, chain 2 T700D",~0.27

# The next lines start with the values.
row,ratio to parent,Variant
1,~1.3,chain 2 T700D
2,~0.58,chain 2 T59D

# Variants of: B1
# Test: as above
# Remark: another data set of the same source
row,ratio to parent,Variant
1,~1.2,chain 2 T700D
